The values below come from PMC10289234, “Construction of an alpaca immune antibody library for the selection of nanobodies against Drosophila melanogaster proteins” (Frontiers in Bioengineering and Biotechnology, 2023).

What is called Kd is the free concentration of one partner at which half of the binding sites on the other are occupied at equilibrium, for simple one-to-one binding. Higher therefore signals weaker binding.

Read-outs that look alike come from different tables or passages of the source.

Test [1] concerns the target T1, Drosophila CG7544, full length (Drosophila melanogaster (Fruit fly)., UniProt Q7K3B9).
T1 construct: CG7544 of Drosophila melanogaster, 305 aa, RNA N6-methyltransferase of U6 small nuclear RNA; full length, PCR-amplified from Drosophila cDNA and cloned into pET-28a; also called CG7454 (misprint in the results)
Kind of test: ELISA; 96-well plate coated with 1 ug/well purified antigen, blocked with 3% BSA; 1 ug purified VHH for 2 h at RT; anti-Flag antibody, HRP anti-mouse, TMB, absorbance at 450 nm; negative controls without Flag antibody or VHH. The settings on record: both partners purified. In general terms: In an ELISA, binding on a coated surface is turned into a signal by an enzyme label.

Test [2] concerns the target T1, Drosophila CG7544, full length.
In test [3] the target is Drosophila Myc, amino acids 1-400 (truncated Myc) (Drosophila melanogaster, strain not …, UniProt Q9W4S7).
Drosophila Myc, amino acids 1-400 (truncated Myc), sequence (Q9W4S7 1-400): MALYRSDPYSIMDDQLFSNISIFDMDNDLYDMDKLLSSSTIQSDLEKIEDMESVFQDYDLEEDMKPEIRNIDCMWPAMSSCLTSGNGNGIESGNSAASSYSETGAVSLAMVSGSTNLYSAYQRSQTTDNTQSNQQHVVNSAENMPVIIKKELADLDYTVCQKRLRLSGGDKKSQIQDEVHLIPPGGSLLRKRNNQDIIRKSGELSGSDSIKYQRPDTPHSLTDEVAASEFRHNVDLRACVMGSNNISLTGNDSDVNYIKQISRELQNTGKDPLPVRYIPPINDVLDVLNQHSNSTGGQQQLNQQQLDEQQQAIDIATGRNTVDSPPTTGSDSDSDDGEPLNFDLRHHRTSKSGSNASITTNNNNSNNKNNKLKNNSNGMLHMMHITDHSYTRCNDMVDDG
Test [4] has as its target T2, Drosophila CyclinE, amino acids 1-361 (truncated CyclinE) (Drosophila melanogaster (Fruit fly)., UniProt P54733).
T2 construct: CyclinE of Drosophila melanogaster, 709 aa, amino acids 1-361, PCR-amplified from cDNA and cloned into pET-28a-GFP-TEV; Vector pET-28a-GFP-TEV was built in the authors' laboratory; also called CycE; source: E. coli BL21 (DE3); not shown: GFP, N-terminal, cleaved
Kind of test: ELISA; colonies of the third-round sublibrary tested on a 96-well plate coated with CyclinE, blocked with 3% BSA; absorbance at 405 nm twofold over negative control wells counted as positive. The following applies: one partner purified.

T1 sequence (Q7K3B9 whole entry): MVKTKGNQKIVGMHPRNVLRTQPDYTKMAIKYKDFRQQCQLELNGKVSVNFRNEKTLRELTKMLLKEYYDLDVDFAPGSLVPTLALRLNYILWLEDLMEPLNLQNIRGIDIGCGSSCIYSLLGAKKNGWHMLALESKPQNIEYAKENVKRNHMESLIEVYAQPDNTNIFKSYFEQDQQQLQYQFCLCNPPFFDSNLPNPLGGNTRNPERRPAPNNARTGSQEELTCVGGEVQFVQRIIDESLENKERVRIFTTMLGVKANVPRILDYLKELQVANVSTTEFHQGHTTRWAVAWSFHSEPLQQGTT
T2 sequence (P54733 1-361): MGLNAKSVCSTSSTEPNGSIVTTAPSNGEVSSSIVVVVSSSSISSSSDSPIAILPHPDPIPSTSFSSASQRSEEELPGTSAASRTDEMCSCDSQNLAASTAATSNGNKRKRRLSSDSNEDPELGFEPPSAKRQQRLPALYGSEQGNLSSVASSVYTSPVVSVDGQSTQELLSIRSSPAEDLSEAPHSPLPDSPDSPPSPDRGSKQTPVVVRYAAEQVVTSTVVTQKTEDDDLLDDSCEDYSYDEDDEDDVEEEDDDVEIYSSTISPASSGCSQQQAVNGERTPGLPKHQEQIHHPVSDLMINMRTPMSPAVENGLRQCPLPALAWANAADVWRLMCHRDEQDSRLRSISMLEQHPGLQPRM

B1: C3, nanobody against CG7544 (Flag-Nb-His) (VHH)
VHH: DVQLQESGGGLVQAGGSLRLSCAASGNTLSTYGMGWFRQAPGKEREFVALINWGGTANYEDSVKGRFTISRDNVQNTMYLQMNNLKPEDTAVYYCFLGTYWGQGTWSPSPA
notes: not shown: Flag, N-terminal, kept
With B1, in test [1], the binding result is on record as “binds”.

B2: C4 (VHH)
VHH: DVQLQESGGGLVQPGGSLRLSCAASGFTFDSNAFGWFRQAPGKEREGVSCISARDSTTFYADAVKGRFTVSRDSAKNTVYLEMDSLKPEDTAVYYCATLYRATAQAMCAMSTLLGYWGQGTQVTVSS
In turn, B2 came in with a Kd in test [2] of 10.5 µM. This counts as double-digit micromolar.

B3: C8 (VHH)
VHH: DVQLQESGGGLVQAGGSLRLSCAASGLTSSYYAIGWFRQAPGKDSEGVSCLDTTGNRINLSNSAKGRFTISRDNAKNTVYLQMNNLKPEDTAIYYCTVVLNSLCDSRWIGAFGSWGQGTQVTVSS
Take B3: the binding result in test [2] was “binds”.

B4: B12 (VHH)
VHH: DVQLQESGGGLVQPGGSLRLSCAASGFTFEAYTMSWVRQAPGKGLEWVSAISQGGATTAYADSVKGRFTISRDNAKSTLYLQMNNLKPEDTAVYYCAKWVFTPSVLGQGTQVTVSS
As to B4, the binding result in test [3] is on record as “binds”.

B5: N1, VHH of a colony from the third-round sublibrary of CyclinE (VHH)
VHH: DVQLQESGGGLVQAGGSLRLSCAASGGTFSRYSMGWFRQAPGKEREFVSAIGWSGYSTRYADSVKGRFTISRDNAKNTVYLQMNSLKPEDTAVYYCNAIVGVFIKRQYWGQGTQVTVSS
notes: The colony ELISA follows Fang et al., 2020; source: randomly selected colony from the third-round sublibrary of CyclinE (vhh in phage display vector pADL-10b), not purified
On to B5, for which the binding result in test [4] was “binds”.

B6: C9 (VHH)
VHH: DVQLQESGGTLVQPGGSLRLSCKASGFPFSDYHMSWVRQAPGKRPEWLSVITTSGDWTHYADSVKGRFAISRDNAKSTLYLQMNSLKPDDTAVYYCARGHYIILGQGTQVTVSS
As for B6, the binding result in test [3] is recorded as “binds”.
